From patent US20110014213A1 (JURIDICAL FDN THE CHEMO SERO THERAP RES INS, published 2011)

Experiments:
mouse α9 integrin = molecular target: T1, mouse α9 integrin (mouse, UniProt B8JK39 29-1036); assay: cell-based or functional assay
T1 chain: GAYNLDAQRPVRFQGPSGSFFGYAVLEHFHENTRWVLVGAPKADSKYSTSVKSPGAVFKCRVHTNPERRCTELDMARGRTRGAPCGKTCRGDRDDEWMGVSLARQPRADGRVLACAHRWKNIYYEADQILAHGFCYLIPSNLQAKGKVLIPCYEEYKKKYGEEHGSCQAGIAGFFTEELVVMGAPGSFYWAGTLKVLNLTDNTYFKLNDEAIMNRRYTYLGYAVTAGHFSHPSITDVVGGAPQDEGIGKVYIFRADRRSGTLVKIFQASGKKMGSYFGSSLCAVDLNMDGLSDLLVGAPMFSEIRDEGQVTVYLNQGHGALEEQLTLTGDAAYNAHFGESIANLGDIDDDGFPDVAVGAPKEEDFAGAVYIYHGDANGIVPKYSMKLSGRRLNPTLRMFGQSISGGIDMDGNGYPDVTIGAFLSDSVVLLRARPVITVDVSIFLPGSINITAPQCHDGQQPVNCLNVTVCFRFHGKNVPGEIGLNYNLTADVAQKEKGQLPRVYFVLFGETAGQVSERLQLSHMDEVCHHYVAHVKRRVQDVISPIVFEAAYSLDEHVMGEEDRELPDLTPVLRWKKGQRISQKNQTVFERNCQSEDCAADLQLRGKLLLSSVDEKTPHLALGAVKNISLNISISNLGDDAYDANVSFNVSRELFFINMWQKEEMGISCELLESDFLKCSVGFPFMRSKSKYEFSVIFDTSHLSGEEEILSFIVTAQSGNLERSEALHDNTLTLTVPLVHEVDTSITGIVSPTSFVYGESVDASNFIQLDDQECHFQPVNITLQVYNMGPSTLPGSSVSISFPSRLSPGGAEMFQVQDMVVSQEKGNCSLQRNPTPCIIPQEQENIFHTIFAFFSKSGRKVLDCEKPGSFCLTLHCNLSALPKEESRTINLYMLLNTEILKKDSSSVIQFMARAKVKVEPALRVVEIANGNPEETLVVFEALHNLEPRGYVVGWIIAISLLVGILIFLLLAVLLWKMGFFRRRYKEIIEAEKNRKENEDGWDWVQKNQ

human α9 integrin = molecular target: T2, human α9 integrin (human, UniProt Q13797 30-1035); assay: cell-based or functional assay
T2 sequence: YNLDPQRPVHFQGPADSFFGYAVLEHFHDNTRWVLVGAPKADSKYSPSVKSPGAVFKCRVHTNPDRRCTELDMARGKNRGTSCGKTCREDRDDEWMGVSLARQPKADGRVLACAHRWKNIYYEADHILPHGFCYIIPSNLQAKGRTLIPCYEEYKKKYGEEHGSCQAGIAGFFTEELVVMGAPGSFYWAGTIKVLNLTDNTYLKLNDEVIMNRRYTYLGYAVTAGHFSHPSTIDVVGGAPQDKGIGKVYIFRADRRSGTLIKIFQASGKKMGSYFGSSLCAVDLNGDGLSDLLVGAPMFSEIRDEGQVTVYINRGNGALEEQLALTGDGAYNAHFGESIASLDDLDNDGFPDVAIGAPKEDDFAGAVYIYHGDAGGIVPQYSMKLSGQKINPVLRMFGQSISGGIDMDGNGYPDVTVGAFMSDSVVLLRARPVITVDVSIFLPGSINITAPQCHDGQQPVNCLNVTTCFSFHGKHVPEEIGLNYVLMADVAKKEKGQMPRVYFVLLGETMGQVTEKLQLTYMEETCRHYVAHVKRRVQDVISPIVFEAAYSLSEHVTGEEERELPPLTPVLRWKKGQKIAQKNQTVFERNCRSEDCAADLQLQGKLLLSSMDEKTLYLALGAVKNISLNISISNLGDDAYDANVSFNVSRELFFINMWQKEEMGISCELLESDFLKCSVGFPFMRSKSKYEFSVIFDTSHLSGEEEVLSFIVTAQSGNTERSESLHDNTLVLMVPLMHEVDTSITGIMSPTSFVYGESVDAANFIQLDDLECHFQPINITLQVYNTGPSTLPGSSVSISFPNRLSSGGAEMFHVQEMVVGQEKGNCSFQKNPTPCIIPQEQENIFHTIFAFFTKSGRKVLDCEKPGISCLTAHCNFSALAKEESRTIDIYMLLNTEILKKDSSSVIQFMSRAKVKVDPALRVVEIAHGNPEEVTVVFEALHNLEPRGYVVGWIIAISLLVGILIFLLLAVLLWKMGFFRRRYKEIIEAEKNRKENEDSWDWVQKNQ

B1: MA9-413 scFv-Fc (Fc fusion)
scFv: EVQLVESGGGVVRPGGSLRLSCAASGFAFGDYGMSWVRQAPGKGLEWVSGINWNGGSTGYADSVKGRFTTSRDNAKNSLYLQMNSLRAEDTALYYCARDENYDILTGYYYYGMDVWGQGTTVTVSSGGGGSGGGGSGGGGSQSVVTQPPSVSAAPGQKVTISCSGSSSNIGNNYVSWYQQLPGTAPKLLIYDNNKRPSGIPDRFSASKSGTSATLGITGLQTGDEADYYCGTWDSSLTVWAFGGGTKLTVLG
notes: Divalent scFv-Fc with mouse IgG1 Fc, expressed in CHO-DG44; also called ANM-2; not shown: Fc region of mouse IgG1 and its junction to the scFv
IC50 of inhibition of α9-dependent cell adhesion (mouse α9 integrin): 0.34 µg/mL
IC50 of inhibition of α9-dependent cell adhesion (human α9 integrin): 48.5 µg/mL
